{"source": "patent CN1660912A", "key": {"[1]": {"target": "白细胞介素-8(IL-8), E.Coli表达的基因重组人体单核细胞来源的IL-8, 72个氨基酸 (human) (UniProt P10145)", "sequence (P10145 21-99)": "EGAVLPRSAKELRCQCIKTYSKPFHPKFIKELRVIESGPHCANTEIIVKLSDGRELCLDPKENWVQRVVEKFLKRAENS", "assay": "ELISA, plate coated with 1ug/ml IL-8, antibody 15 ng/ml, replicate 1"}, "b-FGF": {"target": "b-FGF (UniProt P09038)", "sequence (P09038 143-288 limits assumed)": "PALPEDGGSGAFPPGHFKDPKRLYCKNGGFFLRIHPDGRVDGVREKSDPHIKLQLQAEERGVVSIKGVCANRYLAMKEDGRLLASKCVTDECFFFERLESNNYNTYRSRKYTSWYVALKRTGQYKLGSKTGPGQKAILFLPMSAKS", "assay": "ELISA, cross-reaction (Table 1)"}, "IL-1β": {"target": "IL-1β (UniProt P01584)", "sequence (P01584 117-269 limits assumed)": "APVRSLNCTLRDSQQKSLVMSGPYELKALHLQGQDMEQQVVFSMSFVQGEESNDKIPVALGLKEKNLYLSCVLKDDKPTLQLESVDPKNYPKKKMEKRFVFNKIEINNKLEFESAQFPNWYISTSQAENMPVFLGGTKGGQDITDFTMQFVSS", "assay": "ELISA, cross-reaction (Table 1)"}, "[2]": {"target": "白细胞介素-8(IL-8), E.Coli表达的基因重组人体单核细胞来源的IL-8, 72个氨基酸 (human) (UniProt P10145)", "assay": "ELISA, cross-reaction (Table 1)"}, "M-CSF": {"target": "T1, M-CSF (UniProt P09603)", "T1 sequence (looked up)": "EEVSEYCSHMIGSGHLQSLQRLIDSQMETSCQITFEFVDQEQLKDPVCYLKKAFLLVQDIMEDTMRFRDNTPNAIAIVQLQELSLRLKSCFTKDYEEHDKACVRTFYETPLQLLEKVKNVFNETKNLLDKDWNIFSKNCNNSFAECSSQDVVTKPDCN", "assay": "ELISA, cross-reaction (Table 1)"}, "GM-CSF": {"target": "GM-CSF (UniProt P04141)", "sequence (P04141 18-144 limits assumed)": "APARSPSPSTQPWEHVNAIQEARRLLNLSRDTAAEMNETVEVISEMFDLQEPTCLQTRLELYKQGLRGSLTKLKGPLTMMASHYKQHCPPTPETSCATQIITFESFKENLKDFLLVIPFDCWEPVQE", "assay": "ELISA, cross-reaction (Table 1)"}, "TNF-α": {"target": "TNF-α (UniProt P01375)", "sequence (P01375 77-233 limits assumed)": "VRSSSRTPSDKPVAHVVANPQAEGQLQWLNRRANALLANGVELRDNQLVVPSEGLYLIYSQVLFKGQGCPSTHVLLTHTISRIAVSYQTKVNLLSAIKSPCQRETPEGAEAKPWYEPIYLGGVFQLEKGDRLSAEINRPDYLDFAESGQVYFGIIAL", "assay": "ELISA, cross-reaction (Table 1)"}, "IL-16": {"target": "IL-16 (UniProt Q14005)", "sequence (Q14005 1212-1332 limits assumed)": "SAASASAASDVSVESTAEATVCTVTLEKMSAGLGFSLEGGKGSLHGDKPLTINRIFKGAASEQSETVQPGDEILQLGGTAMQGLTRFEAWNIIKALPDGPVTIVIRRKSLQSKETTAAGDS", "assay": "ELISA, cross-reaction (Table 1)"}, "MCP-3": {"target": "MCP-3 (UniProt P80098)", "sequence (P80098 24-99 limits assumed)": "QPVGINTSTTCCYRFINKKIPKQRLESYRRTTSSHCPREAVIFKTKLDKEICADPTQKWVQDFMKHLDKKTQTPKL", "assay": "ELISA, cross-reaction (Table 1)"}, "TGF-β": {"target": "TGF-β", "assay": "ELISA, cross-reaction (Table 1)"}, "EGF": {"target": "EGF (UniProt P01133)", "sequence (P01133 971-1023 limits assumed)": "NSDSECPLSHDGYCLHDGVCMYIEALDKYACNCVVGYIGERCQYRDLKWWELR", "assay": "ELISA, cross-reaction (Table 1)"}, "IL-7": {"target": "T2, IL-7 (UniProt P13232)", "T2 sequence (looked up)": "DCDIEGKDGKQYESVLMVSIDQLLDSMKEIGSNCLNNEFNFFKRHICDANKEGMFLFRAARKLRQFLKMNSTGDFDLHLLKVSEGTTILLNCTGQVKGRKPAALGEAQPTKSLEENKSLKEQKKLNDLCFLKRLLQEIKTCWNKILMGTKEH", "assay": "ELISA, cross-reaction (Table 1)"}, "HSA": {"target": "HSA (UniProt P02768)", "sequence (P02768 25-609)": "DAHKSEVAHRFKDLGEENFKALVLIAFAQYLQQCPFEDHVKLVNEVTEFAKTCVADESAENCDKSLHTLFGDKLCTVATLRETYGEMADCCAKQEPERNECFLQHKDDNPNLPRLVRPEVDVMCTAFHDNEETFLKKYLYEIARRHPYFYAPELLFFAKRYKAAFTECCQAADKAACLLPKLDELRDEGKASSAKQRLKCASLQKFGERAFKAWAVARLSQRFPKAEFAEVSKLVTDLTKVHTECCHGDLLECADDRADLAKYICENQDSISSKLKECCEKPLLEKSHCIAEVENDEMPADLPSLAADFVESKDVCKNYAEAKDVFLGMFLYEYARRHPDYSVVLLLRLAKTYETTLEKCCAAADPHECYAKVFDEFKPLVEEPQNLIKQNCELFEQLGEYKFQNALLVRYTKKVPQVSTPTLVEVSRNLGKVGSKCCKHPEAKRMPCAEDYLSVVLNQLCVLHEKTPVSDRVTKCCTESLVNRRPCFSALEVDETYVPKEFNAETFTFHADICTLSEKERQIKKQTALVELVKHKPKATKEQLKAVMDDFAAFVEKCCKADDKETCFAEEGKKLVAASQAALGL", "assay": "ELISA, cross-reaction (Table 1)"}, "MCAF": {"target": "MCAF (UniProt P13500)", "sequence (P13500 24-99 limits assumed)": "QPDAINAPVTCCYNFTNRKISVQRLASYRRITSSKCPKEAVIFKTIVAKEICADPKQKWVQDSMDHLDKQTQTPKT", "assay": "ELISA, cross-reaction (Table 1)"}, "BSA": {"target": "BSA (UniProt P02769)", "sequence (P02769 25-607 limits assumed)": "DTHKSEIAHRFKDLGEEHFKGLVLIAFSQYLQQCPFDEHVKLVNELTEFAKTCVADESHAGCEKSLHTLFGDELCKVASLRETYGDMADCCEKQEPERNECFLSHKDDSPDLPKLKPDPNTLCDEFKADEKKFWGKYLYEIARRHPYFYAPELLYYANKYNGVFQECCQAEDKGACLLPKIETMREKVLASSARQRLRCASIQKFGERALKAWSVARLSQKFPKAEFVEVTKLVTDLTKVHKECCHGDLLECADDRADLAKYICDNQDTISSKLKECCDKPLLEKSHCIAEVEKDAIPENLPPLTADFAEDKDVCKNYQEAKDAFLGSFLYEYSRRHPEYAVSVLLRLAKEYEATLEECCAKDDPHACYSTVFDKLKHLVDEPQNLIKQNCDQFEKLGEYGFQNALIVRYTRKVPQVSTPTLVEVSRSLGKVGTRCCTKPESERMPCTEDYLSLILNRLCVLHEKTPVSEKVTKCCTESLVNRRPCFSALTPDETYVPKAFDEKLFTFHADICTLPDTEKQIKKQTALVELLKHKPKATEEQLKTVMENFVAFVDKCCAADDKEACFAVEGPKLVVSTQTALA", "assay": "ELISA, cross-reaction (Table 1)"}, "[3]": {"target": "白细胞介素-8(IL-8), E.Coli表达的基因重组人体单核细胞来源的IL-8, 72个氨基酸 (human) (UniProt P10145)", "assay": "ELISA, plate coated with 1ug/ml IL-8, antibody 3 ng/ml, mean"}, "[4]": {"target": "白细胞介素-8(IL-8), E.Coli表达的基因重组人体单核细胞来源的IL-8, 72个氨基酸 (human) (UniProt P10145)", "assay": "ELISA, plate coated with 1ug/ml IL-8, antibody 3 ng/ml, replicate 1"}, "[5]": {"target": "白细胞介素-8(IL-8), E.Coli表达的基因重组人体单核细胞来源的IL-8, 72个氨基酸 (human) (UniProt P10145)", "assay": "ELISA, plate coated with 1ug/ml IL-8, antibody 30 ng/ml, replicate 1"}, "[6]": {"target": "白细胞介素-8(IL-8), E.Coli表达的基因重组人体单核细胞来源的IL-8, 72个氨基酸 (human) (UniProt P10145)", "assay": "ELISA, plate coated with 1ug/ml IL-8, antibody 15 ng/ml, mean"}, "[7]": {"target": "白细胞介素-8(IL-8), E.Coli表达的基因重组人体单核细胞来源的IL-8, 72个氨基酸 (human) (UniProt P10145)", "assay": "ELISA, plate coated with 1ug/ml IL-8, antibody 3 ng/ml, replicate 2"}, "[8]": {"target": "白细胞介素-8(IL-8), E.Coli表达的基因重组人体单核细胞来源的IL-8, 72个氨基酸 (human) (UniProt P10145)", "assay": "cell-based or functional assay"}, "[9]": {"target": "白细胞介素-8(IL-8), E.Coli表达的基因重组人体单核细胞来源的IL-8, 72个氨基酸 (human) (UniProt P10145)", "assay": "ELISA, plate coated with 1ug/ml IL-8, antibody 30 ng/ml, mean"}, "ENA78": {"target": "T3, ENA78 (UniProt P42830)", "T3 sequence (looked up)": "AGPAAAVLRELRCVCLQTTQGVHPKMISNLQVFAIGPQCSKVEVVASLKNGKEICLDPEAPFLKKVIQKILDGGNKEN", "assay": "ELISA, cross-reaction with IL-8 homologues (Table 2)"}, "[10]": {"target": "白细胞介素-8(IL-8), E.Coli表达的基因重组人体单核细胞来源的IL-8, 72个氨基酸 (human) (UniProt P10145)", "assay": "ELISA, cross-reaction with IL-8 homologues (Table 2)"}, "GCP2": {"target": "GCP2 (UniProt P80162)", "sequence (P80162 38-114 limits assumed)": "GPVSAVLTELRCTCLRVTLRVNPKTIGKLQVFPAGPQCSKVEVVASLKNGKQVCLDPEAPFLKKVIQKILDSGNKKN", "assay": "ELISA, cross-reaction with IL-8 homologues (Table 2)"}, "PF-4": {"target": "T4, PF-4 (UniProt P02776)", "T4 sequence (looked up)": "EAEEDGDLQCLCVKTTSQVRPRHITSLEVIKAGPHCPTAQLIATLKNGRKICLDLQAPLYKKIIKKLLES", "assay": "ELISA, cross-reaction with IL-8 homologues (Table 2)"}, "NAP-2": {"target": "T5, NAP-2 (UniProt P02775)", "T5 sequence (looked up)": "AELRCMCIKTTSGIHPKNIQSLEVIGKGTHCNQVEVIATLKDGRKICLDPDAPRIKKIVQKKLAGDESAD", "assay": "ELISA, cross-reaction with IL-8 homologues (Table 2)"}, "GROα": {"target": "GROα (UniProt P09341)", "sequence (P09341 35-107 limits assumed)": "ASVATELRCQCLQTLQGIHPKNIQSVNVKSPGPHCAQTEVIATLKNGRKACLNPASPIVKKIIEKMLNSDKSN", "assay": "ELISA, cross-reaction with IL-8 homologues (Table 2)"}, "[11]": {"target": "白细胞介素-8(IL-8), E.Coli表达的基因重组人体单核细胞来源的IL-8, 72个氨基酸 (human) (UniProt P10145)", "assay": "ELISA, plate coated with 1ug/ml IL-8, antibody 30 ng/ml, replicate 2"}, "[12]": {"target": "白细胞介素-8(IL-8), E.Coli表达的基因重组人体单核细胞来源的IL-8, 72个氨基酸 (human) (UniProt P10145)", "assay": "ELISA, plate coated with 1ug/ml IL-8, antibody 15 ng/ml, replicate 2"}}, "data": [{"binder": "抗IL-8单克隆抗体 克隆6E6(又称I8-60) (antibody, part only; not given: light variable and mouse constant regions, IgG1, V domains shown, part only) VH: QVKLQQSGGGLVQPGGSLKFSCAASGFDFSRYWMSWVRQAPGKGLEWIGEINPDSTTINYTPSLKDKFIISRDNAKNTLYLQMSKVRSEDTALYYCARLDGYYGYFDYWGQGTTVTVSS", "values": [{"measurement": "OD 450", "setting": "[1]", "value": 0.626, "unit": "OD450"}, {"measurement": "O.D.值", "setting": "b-FGF", "value": 0.027, "unit": "OD"}, {"measurement": "O.D.值", "setting": "IL-1β", "value": 0.029, "unit": "OD"}, {"measurement": "O.D.值", "setting": "[2]", "value": "> 2", "unit": "OD"}, {"measurement": "O.D.值", "setting": "M-CSF", "value": 0.044, "unit": "OD"}, {"measurement": "O.D.值", "setting": "GM-CSF", "value": 0.037, "unit": "OD"}, {"measurement": "O.D.值", "setting": "TNF-α", "value": 0.039, "unit": "OD"}, {"measurement": "O.D.值", "setting": "IL-16", "value": 0.044, "unit": "OD"}, {"measurement": "O.D.值", "setting": "MCP-3", "value": 0.024, "unit": "OD"}, {"measurement": "O.D.值", "setting": "TGF-β", "value": 0.021, "unit": "OD"}, {"measurement": "O.D.值", "setting": "EGF", "value": 0.044, "unit": "OD"}, {"measurement": "O.D.值", "setting": "IL-7", "value": 0.06, "unit": "OD"}, {"measurement": "O.D.值", "setting": "HSA", "value": 0.129, "unit": "OD"}, {"measurement": "O.D.值", "setting": "MCAF", "value": 0.023, "unit": "OD"}, {"measurement": "O.D.值", "setting": "BSA", "value": 0.147, "unit": "OD"}, {"measurement": "OD 450 平均值", "setting": "[3]", "value": 0.365, "unit": "OD450"}, {"measurement": "OD 450", "setting": "[4]", "value": 0.352, "unit": "OD450"}, {"measurement": "OD 450", "setting": "[5]", "value": 1.09, "unit": "OD450"}, {"measurement": "OD 450 平均值", "setting": "[6]", "value": 0.667, "unit": "OD450"}, {"measurement": "OD 450", "setting": "[7]", "value": 0.377, "unit": "OD450"}, {"measurement": "化学趋向抑制率 (antibody 0.05μg/mL, IL-8 10ng/ml, Ab∶Ag 5∶1)", "setting": "[8]", "value": 17.1, "unit": "%"}, {"measurement": "化学趋向抑制率 (antibody 0.5μg/mL, IL-8 10ng/ml, Ab∶Ag 50∶1)", "setting": "[8]", "value": 83.9, "unit": "%"}, {"measurement": "化学趋向抑制率 (antibody 5μg/mL, IL-8 10ng/ml, Ab∶Ag 500∶1)", "setting": "[8]", "value": 99.8, "unit": "%"}, {"measurement": "化学趋向抑制率 (antibody 50μg/mL, IL-8 10ng/ml, Ab∶Ag 5000∶1)", "setting": "[8]", "value": 118, "unit": "%"}, {"measurement": "抑制率(%) (IL-8 20 ng/ml, antibody 0.1 ug/ml)", "setting": "[8]", "value": 48.9, "unit": "%"}, {"measurement": "抑制率(%) (IL-8 20 ng/ml, antibody 1 ug/ml)", "setting": "[8]", "value": 81.1, "unit": "%"}, {"measurement": "抑制率(%) (IL-8 20 ng/ml, antibody 10 ug/ml)", "setting": "[8]", "value": 91.1, "unit": "%"}, {"measurement": "趋化指数 (IL-8 20 ng/ml, antibody 0.1 ug/ml)", "setting": "[8]", "value": 2.24}, {"measurement": "趋化指数 (IL-8 20 ng/ml, antibody 1 ug/ml)", "setting": "[8]", "value": 1.46}, {"measurement": "趋化指数 (IL-8 20 ng/ml, antibody 10 ug/ml)", "setting": "[8]", "value": 1.22}, {"measurement": "OD 450 平均值", "setting": "[9]", "value": 1.18, "unit": "OD450"}, {"measurement": "O.D.值", "setting": "ENA78", "value": 0.073, "unit": "OD"}, {"measurement": "O.D.值", "setting": "[10]", "value": "> 2", "unit": "OD"}, {"measurement": "O.D.值", "setting": "GCP2", "value": 0.088, "unit": "OD"}, {"measurement": "O.D.值", "setting": "PF-4", "value": 0.113, "unit": "OD"}, {"measurement": "O.D.值", "setting": "NAP-2", "value": 0.031, "unit": "OD"}, {"measurement": "O.D.值", "setting": "GROα", "value": 0.097, "unit": "OD"}, {"measurement": "OD 450", "setting": "[11]", "value": 1.27, "unit": "OD450"}, {"measurement": "OD 450", "setting": "[12]", "value": 0.708, "unit": "OD450"}]}, {"binder": "抗IL-8嵌合型抗体 (Chimeric anti-IL8 Ab) (antibody, part only; not given: light variable and human constant regions, not shown: a dimerising Fc or GST) heavy: QVKLQQSGGGLVQPGGSLKFSCAASGFDFSRYWMSWVRQAPGKGLEWIGEINPDSTTINYTPSLKDKFIISRDNAKNTLYLQMSKVRSEDTALYYCARLDGYYGYFDYWGQGTTVTVSS", "values": [{"measurement": "OD 450", "setting": "[1]", "value": 1.09, "unit": "OD450"}, {"measurement": "OD 450 平均值", "setting": "[3]", "value": 0.402, "unit": "OD450"}, {"measurement": "OD 450", "setting": "[4]", "value": 0.406, "unit": "OD450"}, {"measurement": "OD 450", "setting": "[5]", "value": 1.9, "unit": "OD450"}, {"measurement": "OD 450 平均值", "setting": "[6]", "value": 1.12, "unit": "OD450"}, {"measurement": "OD 450", "setting": "[7]", "value": 0.398, "unit": "OD450"}, {"measurement": "抑制率(%) (IL-8 20 ng/ml, antibody 0.1 ug/ml)", "setting": "[8]", "value": 48.2, "unit": "%"}, {"measurement": "抑制率(%) (IL-8 20 ng/ml, antibody 1 ug/ml)", "setting": "[8]", "value": 80.2, "unit": "%"}, {"measurement": "抑制率(%) (IL-8 20 ng/ml, antibody 10 ug/ml)", "setting": "[8]", "value": 75.1, "unit": "%"}, {"measurement": "趋化指数 (IL-8 20 ng/ml, antibody 0.1 ug/ml)", "setting": "[8]", "value": 2.25}, {"measurement": "趋化指数 (IL-8 20 ng/ml, antibody 1 ug/ml)", "setting": "[8]", "value": 1.48}, {"measurement": "趋化指数 (IL-8 20 ng/ml, antibody 10 ug/ml)", "setting": "[8]", "value": 1.6}, {"measurement": "OD 450 平均值", "setting": "[9]", "value": 1.95, "unit": "OD450"}, {"measurement": "OD 450", "setting": "[11]", "value": 2, "unit": "OD450"}, {"measurement": "OD 450", "setting": "[12]", "value": 1.14, "unit": "OD450"}]}]}
